# Results reported in US20080300206.
# Tested on: recombinant wild-type human alpha-synuclein
Substance,"S87 phosphorylation, immunoblot (ELADW-110)","S129 phosphorylation in vitro, normalised by activity units","S129 phosphorylation, immunoblot (11A5), kinase:AS 1:200 molar","S129 phosphorylation, immunoblot (11A5), rank of signal","phospho ser-129 level in vitro, normalised for molarity"
casein kinase I (CKI),A signal was detected only with CKI phosphorylation,CKI gave a modest signal,"Prominent signals came from GRK6, CKI, CKII and PLK2",CKI>GRK6>PLK2>GRK4>GRK5>GRK2,"roughly equivalent levels of phospho ser-129 between CKI, GRK6 and PLK2"
casein kinase II (CKII),–,CKII was not detectable,"Prominent signals came from GRK6, CKI, CKII and PLK2",–,–
